Experimental findings from patent US20080124780A1, “Hybrid immobilized catalytic system with controlled permeability” (NORTHEASTERN UNIVERSITY, priority 2002, published 2008) are described below.

For this series the following is noted: not told; for Permeability Coefficient: pH 7.4.

Description: In order to estimate the molecular weight cut-off point of the cross-linked chitosan, a model representing the chitosan layer was developed in which a thin membrane acts as a layer surrounding the alginate core. The permeability coefficients for vitamin B2 (molecular weight 376 daltons) and vitamin B12 (molecular weight 1355 daltons) representing low-molecular weight substrates, and myoglobin (molecular weight 14,000 daltons) representing a high molecular weight substrate, were studied.
Chitosan solution was prepared by dissolving the polymer (750 kDa, 87.6% deacetylation) obtained from Pronova Biopolymers (Raymond, Wash.) in 0.1-M acetic acid to make a 0.75% (w/v) solution. Films were made by pouring 10 ml of the solution into a Petri dish (100×15 mm) and air-drying for up to 48 hours. The resulting films were dipped into a 3.0% (w/v) aqueous sodium tri-polyphosphate (Na-TPP, Sigma Chemical Company, St. Louis, Mo.) solution and kept for 1.5 hours. The cross-linked membranes were washed with distilled water once and stored in PBS at 4° C.
Using a side-by-side diffusion apparatus, the permeability coefficients of vitamin B2, vitamin B12, and myoglobin were determined. Briefly, each apparatus was composed of a donor compartment and a receptor compartment, with a 15-ml capacity. The donor and receptor compartments were separated by the membrane.
The donor compartment was filled with 15 ml of vitamin B2, vitamin B12, or myoglobin solution, and the receptor compartment was filled with 15 ml of phosphate buffered-saline (PBS) pH 7.4. The concentrations of vitamin B2, vitamin B12 and myoglobin were 0.1, 1.0, and 0.1 mg/ml respectively. The receptor compartment was stirred and temperature was controlled in both compartments at 37° C. by a circulating water bath. […] The absorbance values of vitamin B2 at 440 nm, vitamin B12 at 361 nm, and myoglobin at 410 nm were measured using a Shimadzu 160U UV/IV spectrophotometer (Columbia, Md.). The concentration of the diffused compound into the receptor compartment was calculated from calibration curves constructed earlier. […]

As to vitamin B12, the “Permeability Coefficient” value is listed as 7.46 ± 1.47 cm^2/min × 10^6.

In the case of myoglobin, the “permeation through the membrane” value was “permeated at only a low level” and the “Permeability Coefficient” value amounted to 0.34 ± 0.89 cm^2/min × 10^6.
